Patent US20060153883A1 (Chugai, published 2006)

Target: T1, HA tag-carrying soluble HM1.24 antigen sHM164 (HM1.24 antigen extracellular region in which the C terminal … (human, UniProt Q10589 49-163, limits assumed))
T1 construct: also called HA-sHM164
T1 sequence: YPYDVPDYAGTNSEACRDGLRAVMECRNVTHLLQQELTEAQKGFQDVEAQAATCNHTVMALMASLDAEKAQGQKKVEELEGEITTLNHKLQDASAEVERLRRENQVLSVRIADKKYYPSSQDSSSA
Assay: sandwich ELISA: anti-HA antibody coated, CHO culture supernatant, humanized anti-HM1.24 antibody as detector, AP-labeled anti-human IgG
Protocol: The soluble human HM1.24 ELISA described below was conducted as follows. In order to select a highly productive strain, the amount of the soluble protein produced was compared by a sandwich ELISA using anti-HA antibody (Boehringer Mannheim) and a humanized anti-HM1.24 antibody (K. Ono et al., The 20th Japan Molecular Biology Annual Meeting, General Lecture 3-501-P-478), whereby selecting the strain. Since the antigen concentration was not known because a purified antigen was not obtained, the number of the cells upon the ELISA was taken into account when comparing the concentration.
An anti-HA antibody (Boehringer Mannheim) was adjusted at 1 μg/ml in a Coating Buffer (C.B.: 0.1 mol/L sodium bicarbonate buffer, pH 9.6, 0.2% sodium azide) was added to a plane bottom 96-well plate (Nunc) in the volume of 100 μl/well, and coated overnight at 4° C.

B1: reconstructed human anti-HM1.24 antibody (humanized anti-HM1.24 antibody), light chain version a and heavy chain version s described in WO98/14580 (antibody, V domains shown)
VH: QVQLVQSGAEVKKPGASVKVSCKASGYTFTPYWMQWVRQAPGQGLEWMGSIFPGDGDTRYSQKFKGRVTITADKSTSTAYMELSSLRSEDTAVYYCARGLRRGGYYFDYWGQGTTVTVSS
VL: DIQMTQSPSSLSASVGDRVTITCKASQDVNTAVAWYQQKPGKAPKLLIYSASNRYTGVPSRFSGSGSGTDFTFTISSLQPEDIATYYCQQHYSTPFTFGQGTKVEIK
notes: Plasmid names point to a human gamma 1 heavy and a kappa light constant region; It was detected with an anti-human IgG antibody in the ELISA
binding result: binds
